# Data taken from PMC11868491.
# B1: EMSA_probe-Crz1/CMK2-F/R (DIG-labeled) (dsDNA)
# DNA 1: AACGCAGCGCGAAGAGAATAATTGAGGCTTATCTTAGAACCCTGCCCCC
# DNA 2: GGGGGCAGGGTTCTAAGATAAGCCTCAATTATTCTCTTCGCGCTGCGTT
# B2: EMSA_probe-Crz1/CMK2-F/R (unlabeled competitor) (dsDNA)
# DNA 1: B1 DNA 1
# DNA 2: B1 DNA 2
# Assays:
# His6-Crz1(N339-S678) [1] = molecular target: T1, His6-Crz1(N339-S678) (Saccharomyces cerevisiae BY4743, UniProt P53968 339-678); assay: EMSA
# His6-Crz1(N339-S678) [2] = molecular target: T1, His6-Crz1(N339-S678); assay: competition
# T1 sequence (P53968 339-678): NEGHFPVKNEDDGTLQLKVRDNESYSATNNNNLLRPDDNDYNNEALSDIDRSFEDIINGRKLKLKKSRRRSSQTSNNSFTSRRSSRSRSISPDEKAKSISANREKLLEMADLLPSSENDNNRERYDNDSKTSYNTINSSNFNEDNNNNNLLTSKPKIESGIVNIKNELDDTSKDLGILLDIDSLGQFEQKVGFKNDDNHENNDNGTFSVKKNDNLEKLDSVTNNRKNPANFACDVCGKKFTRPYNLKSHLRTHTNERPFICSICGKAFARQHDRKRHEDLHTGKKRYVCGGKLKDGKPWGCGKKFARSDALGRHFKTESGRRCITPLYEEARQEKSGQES
Binder,binding result (His6-Crz1(N339-S678) [1]),binding result (His6-Crz1(N339-S678) [2])
B1,binds,
B2,,binds
